Patent publication US20190022245A1

Biological target: epidermal growth factor receptor (EGFR) on cells (human (on human cell lines)) (UniProt P00533)
Assay: cell-based or functional assay

B1: h15-2b Fab × EGFR scFv (monovalent anti-mPEG (h15-2b) anti-EGFR BsAb, example 2.3) (bispecific antibody, part only; not given: nothing essential named, not shown: another chain or arm of the molecule; ; small tags and cut ends)
light: DIQMTQSPSSLSASVGDRVTITCKASQDVNTSVAWYQQKPGKAPKLLIYWASTRHTGVPSRFSGSGSGTDFTFTISSLQPEDIATYYCLQYINYPYTFGQGTKLEIKRTVAAPSVFIFPPSDEQLKSGTASVVCLLNNFYPREAKVQWKVDNALQSGNSQESVTEQDSKDSTYSLSSTLTLSKADYEKHKLYACEVTHQGLSSPVTKSFNRGEC
heavy: EVQLVESGGGLVQPGGSLKLSCAASGFTFSNYWMNWVRQASGKGLEWVGEIRSKSNNYATHYAESVKGRFTISRDDSKNTAYLQMNSLKTEDTAVYYCSNRYYWGQGTLVTVSSASTKGPSVFPLAPCSRSTSESTAALGCLVKDYFPEPVTVSWNSGALTSGVHTFPAVLQSSGLYSLSSVVTVPSSNFGTQTYTCNVDHKPSNTKVDKTVERKGEQKLISEEDLGGGGSGGGGSGGGGSQLDIVMTQSPLSLPVTPGEPASISCRSSQNIVHNNGITYLEWYLQKPGQSPQLLIYKVSDRFSGVPDRFSGSGSGTDFTLKISRVEAEDVGVYYCFQGSHIPPTFGQGTKVEIKRAGGGGSGGGGSGGGGSQVQLVQSGAEVKKPGASVKVSCKASGYTFTSYWMHWVRQAPGQGLEWMGNIYPGSGGTNYAEKFKNRVTMTRDTSISTAYMELSRLRSDDTAVYYCARSGGPYFFDYWGQGTLVTVSS
- region of interest (ROI) ratio of SW480 (EGFR+) to SW620 (EGFR-) tumors, 24 h: 2.04
- region of interest (ROI) ratio of SW480 (EGFR+) to SW620 (EGFR-) tumors, 48 h: 2.32
- region of interest (ROI) ratio of SW480 (EGFR+) to SW620 (EGFR-) tumors, 72 h: 2.33
